Series [1] deals with MtYcaO (YcaO from Methanothermobacter sp. CaT2), MBP-His tag cut in the assay mixture (Methanothermobacter sp. CaT2). As to the kind of experiment: fluorescence polarisation.
Series [2] deals with the molecule itself. As to the kind of experiment: native MS.

Positions count from the first letter of the chain named. Names may count otherwise. *: point of attachment. COSH = C-terminal thiocarboxylate, S*

B1: MtTfuA-E67A (enzyme)
chain: MHGKKIIIFTGPSLSHTEASSILEAEYRPPVRRGDIQEAMKENPDIIGIIDGVFHQSPAVGHRAIIDAIRRGVKVVGGASMGALRASELSDLGMVGVGRIFRSYLEGEIESDDDVAVAFNPETLEPLSDSLVSIEFNLKRALRRGVIREDDFRKLMNTARNLFYPLRNYRRILHESGIPDDVKESLRSFLESEGRDLKREDALEVIRHIKRLAYTE
For orientation: EC50 means the concentration needed to bring the measured effect to its halfway point. B1: the EC50 in series [1] turned out to be 4.9 µM.

B2: MtTfuA-D203A (enzyme)
chain: B1 chain with A64E, D196A
Turning to B2, the EC50 in series [1] came to 2.9 µM.

B3: MtTfuA-F57A (enzyme)
chain: B1 chain with F54A, A64E
Turning to B3, the EC50 in series [1] amounted to 3.8 µM.

B4: MtTfuA-E91D (enzyme)
chain: B1 chain with A64E, E88D
For the molecule B4, the EC50 in series [1] is 2.1 µM.

B5: MtTfuA-S16A (enzyme)
chain: B1 chain with S13A, A64E
B5: the EC50 in series [1] was found to be 5.4 µM.

B6: MtTfuA-D115A (enzyme)
chain: B1 chain with A64E, D112A
B6: in series [1], the EC50 was greater than 30 µM.

B7: MtTfuA-D208N (enzyme)
chain: B1 chain with A64E, D201N
Regarding B7, in series [1], the EC50 was determined as 3.9 µM.

B8: MtTfuA-S83A (enzyme)
chain: B1 chain with A64E, S80A
Take B8: the EC50 in series [1] was determined as 4.1 µM.

B9: MtTfuA-V118A (enzyme)
chain: B1 chain with A64E, V115A
As to B9, the EC50 in series [1] is greater than 30 µM.

B10: MtTfuA-Y107A (enzyme)
chain: B1 chain with A64E, Y104A
On to B10, for which, in series [1], the EC50 was greater than 30 µM.

B11: MtTfuA-L87A (enzyme)
chain: B1 chain with A64E, L84A
B11: in series [1], the EC50 is greater than 30 µM.

B12: MtTfuA-E91Q (enzyme)
chain: B1 chain with A64E, E88Q
With B12, in series [1], the EC50 is greater than 30 µM.

B13: MtTfuA-R88A (enzyme)
chain: B1 chain with A64E, R85A
In the case of B13, in series [1], the EC50 is greater than 30 µM.

B14: MtTfuA-M84A (enzyme)
chain: B1 chain with A64E, M81A
As for B14, the EC50 in series [1] came to 3.2 µM.

B15: MtTfuA-D54A (enzyme)
chain: B1 chain with D51A, A64E
For the molecule B15, the EC50 in series [1] is greater than 30 µM.

B16: MtTfuA-R206A (enzyme)
chain: B1 chain with A64E, R199A
As for B16, the EC50 in series [1] is 3.1 µM.

B17: MtTfuA-R170A (enzyme)
chain: B1 chain with A64E, R167A
With B17, the EC50 in series [1] is greater than 30 µM.

B18: MtTfuA-K205M (enzyme)
chain: B1 chain with A64E, K198M
In the case of B18, in series [1], the EC50 amounted to 1.1 µM.

B19: MtTfuA-H65A (enzyme)
chain: B1 chain with H62A, A64E
For the molecule B19, in series [1], the EC50 is greater than 30 µM.

B20: MtThiS-COSH (thiocarboxylated ThiS from Methanothermobacter sp. CaT2) (natural protein)
chain: MVIGMKFTVITDDGKKILESGAPRRIKDVLGELEIPIETVVVKKNGEIVIEEEEIFDGDIIEVIRVIYGG-{COSH}
In general, stoichiometry N refers to the number of molecules, sites or subunits per partner or assembly. B20: in series [2], the “stoichiometry N” value is 2.
